From patent US20260184782A1 (TWIST BIOSCIENCE, published 2026)
Residue numbers refer to the chain shown, from its start.

Target: T1, human TIGIT-Fc (human, UniProt Q495A1 22-141, limits assumed)
T1 construct: not shown: Fc; not described
T1 sequence (looked up): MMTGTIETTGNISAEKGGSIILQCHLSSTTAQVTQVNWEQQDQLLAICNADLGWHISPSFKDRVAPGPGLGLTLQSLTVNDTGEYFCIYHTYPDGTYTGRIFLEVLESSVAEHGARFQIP
Assay: CD155 competition ELISA, single point; note: test concentration or dose not given here
Description: TIGIT/CD155 inhibition of VHH-Fcs were assessed using an ELISA assay (Table 10B). Briefly, human TIGIT-Fc was coated on a plate & then incubated with VHH-Fcs and human CD155-biotin. Bound CD155-biotin was detected using a streptavidin-HRP conjugate visualized with TMB. Strong inhibitors from the single point screen were titrated to determine EC50 (Table 10C).

B1: TIGIT-SC22 (Fc fusion)
VHH: EVQLVESGGGLVQPGGSLRLSCAASGFTLENNMMGWFRQAPGKEREMVAAISWSGGSALYADSVKGRFTISADNSKNTAYLQMNSLKPEDTAVYYCARGDGYSYGNFDYWGQGTLVTVSS
notes: VHH-Fc
- OD (450 nm): 0.552 OD

B2: TIGIT-SC9 (Fc fusion)
VHH: EVQLVESGGGLVQPGGSLRLSCAASGNTFSGGFMGWFRQAPGKEREWVASVLRGGYTWYADSVKGRFTISADNSKNTAYLQMNSLKPEDTAVYYCVNGYSYGRDYWGQGTLVTVSS
notes: VHH-Fc
- OD (450 nm): 0.756 OD

B3: TIGIT-SC20 (Fc fusion)
VHH: EVQLVESGGGLVQPGGSLRLSCAASGNTFSGGFMGWFRQAPGKEREWVASVLRGGYTWYADSVKGRFTISADNSKNTAYLQMNSLKPEDTAVYYCATPRGYWGQGTLVTVSS
notes: VHH-Fc
- OD (450 nm): 0.726 OD

B4: TIGIT-SC173 (Fc fusion)
VHH: EVQLVESGGGLVQPGGSLRLSCAASGFTFSPSWMGWFRQAPGKEREWVASVLRGGYTWYADSVKGRFTISADNSKNTAYLQMNSLKPEDTAVYYCATERRLGVWGQGTLVTVSS
notes: VHH-Fc
- OD (450 nm): 0.578 OD

B5: TIGIT-SC191 (Fc fusion)
VHH: B4 VHH with T28V, P31S, S32D, T97R, E98G, R99D, R100S, L101M, G102D
notes: VHH-Fc
- OD (450 nm): 0.49 OD

B6: TIGIT-SC25 (Fc fusion)
VHH: EVQLVESGGGLVQPGGSLRLSCAASGNTFSGGFMGWFRQAPGKEREWVASVLRGGYTWYADSVKGRFTISADNSKNTAYLQMNSLKPEDTAVYYCTTVGYGDYWGQGTLVTVSS
notes: VHH-Fc
- OD (450 nm): 0.469 OD

B7: TIGIT-SC203 (Fc fusion)
VHH: B4 VHH with T97R, E98D, R100G, L101G, G102S, V103D
notes: VHH-Fc
- OD (450 nm): 0.521 OD

B8: TIGIT-SC198 (Fc fusion)
VHH: B4 VHH with W47Y, T97S, R99G, R100D, L101P, G102D, V103Y
notes: VHH-Fc
- OD (450 nm): 0.514 OD

B9: TIGIT-SC42 (Fc fusion)
VHH: B6 VHH with S50T, T96A, T97S, V98G, Y100F, G101L, D102A, Y103S
notes: VHH-Fc
- OD (450 nm): 0.341 OD

B10: TIGIT-SC195 (Fc fusion)
VHH: B4 VHH with T28A, P31S, S32D, T97R, E98G, R99E, R100G, L101F, G102D, V103Y
- OD (450 nm): 0.426 OD

B11: TIGIT-SC171 (Fc fusion)
VHH: B4 VHH with S30D, P31R
notes: VHH-Fc
- OD (450 nm): 0.571 OD

B12: TIGIT-SC201 (Fc fusion)
VHH: B4 VHH with A96T, T97R, E98D, R99G, R100G, L101F, G102D, V103P
notes: VHH-Fc
- OD (450 nm): 0.509 OD

B13: TIGIT-SC16 (Fc fusion)
VHH: EVQLVESGGGLVQPGGSLRLSCAASGTTFSSAAMGWFRQAPGKEREWVASVLRGGYTWYADSVKGRFTISADNSKNTAYLQMNSLKPEDTAVYYCARDPVELGDYWGQGTLVTVSS
notes: VHH-Fc
- OD (450 nm): 0.471 OD

B14: TIGIT-SC15 (Fc fusion)
VHH: EVQLVESGGGLVQPGGSLRLSCAASGSILSFNHIGWFRQAPGKEREGVAWIARYDGSTLYADSVKGRFTISADNSKNTAYLQMNSLKPEDTAVYYCARARGGYVDYWGQGTLVTVSS
notes: VHH-Fc
- OD (450 nm): 0.576 OD

B15: TIGIT-SC18 (Fc fusion)
VHH: EVQLVESGGGLVQPGGSLRLSCAASGFSLDYYAMGWFRQAPGKEREVVAIIDTNGDNTLYADSVKGRFTISADNSKNTAYLQMNSLKPEDTAVYYCARGRGYGDYVGAYWGQGTLVTVSS
notes: VHH-Fc
- OD (450 nm): 0.716 OD

B16: TIGIT-SC28 (Fc fusion)
VHH: EVQLVESGGGLVQPGGSLRLSCAASGRTFSTDAMGWFRQAPGKEREFVATINWKDGFTYYADSVKGRFTISADNSKNTAYLQMNSLKPEDTAVYYCAGVGHDYGDYLFDYWGQGTLVTVSS
notes: VHH-Fc
- OD (450 nm): 0.539 OD

B17: TIGIT-SC10 (Fc fusion)
VHH: EVQLVESGGGLVQPGGSLRLSCAASGNTFSGGFMGWFRQAPGKEREWVASVLRGGYTWYADSVKGRFTISADNSKNTAYLQMNSLKPEDTAVYYCASDPWGTRYFDHWGQGTLVTVSS
notes: VHH-Fc
- OD (450 nm): 0.756 OD

B18: TIGIT-SC61 (Fc fusion)
VHH: B17 VHH with A96T, S97R, D98G, P99D, W100T, G101A, T102M, R103A, Y104T, H107Y
notes: VHH-Fc
- OD (450 nm): 0.343 OD

B19: TIGIT-SC21 (Fc fusion)
VHH: B17 VHH with S97R, D98G, P99G, W100A, T102S, R103D, Y104W, D106G, H107P
notes: VHH-Fc
- OD (450 nm): 0.607 OD

B20: TIGIT-SC175 (Fc fusion)
VHH: EVQLVESGGGLVQPGGSLRLSCAASGNTFSGGFMGWFRQAPGKEREWVASVLRGGYTWYADSVKGRFTISADNSKNTAYLQMNSLKPEDTAVYYCTTDALRFLEWPWWGQGTLVTVSS
notes: VHH-Fc
- OD (450 nm): 0.59 OD

B21: TIGIT-SC12 (Fc fusion)
VHH: EVQLVESGGGLVQPGGSLRLSCAASGRTFSAYGMGWFRQAPGKEREFVAAITPSSRTTYYADSVKGRFTISADNSKNTAYLQMNSLKPEDTAVYYCAKDNWGEWLMPWWGQGTLVTVSS
notes: VHH-Fc
- OD (450 nm): 0.622 OD

B22: TIGIT-SC13 (Fc fusion)
VHH: EVQLVESGGGLVQPGGSLRLSCAASGRTFSFMGWFRQAPGKEREWVASVLRGGYTWYADSVKGRFTISADNSKNTAYLQMNSLKPEDTAVYYCATESMDYWGQGTLVTVSS
notes: VHH-Fc
- OD (450 nm): 0.666 OD

B23: TIGIT-SC19 (Fc fusion)
VHH: EVQLVESGGGLVQPGGSLRLSCAASGRTYDAMGWFRQAPGKEREWVASVLRGGYTWYADSVKGRFTISADNSKNTAYLQMNSLKPEDTAVYYCARDVDYRFDSWGQGTLVTVSS
notes: VHH-Fc
- OD (450 nm): 0.746 OD

B24: TIGIT-SC165 (Fc fusion)
VHH: EVQLVESGGGLVQPGGSLRLSCAASGNTFSGGFMGWFRQAPGKEREWVASVLRGGYTWYADSVKGRFTISADNSKNTAYLQMNSLKPEDTAVYYCTTEGSGWRNWGQGTLVTVSS
notes: VHH-Fc
- OD (450 nm): 0.324 OD

B25: TIGIT-SC189 (Fc fusion)
VHH: B24 VHH with T96V, E98D, G99V, S100G, G101A, W102P, R103D, N104Y
notes: VHH-Fc
- OD (450 nm): 0.486 OD

B26: TIGIT-SC17 (Fc fusion)
VHH: EVQLVESGGGLVQPGGSLRLSCAASGFDFSVSWMGWFRQAPGKEREWVASVLRGGYTWYADSVKGRFTISADNSKNTAYLQMNSLKPEDTAVYYCAREGSWFDYWGQGTLVTVSS
notes: VHH-Fc
- OD (450 nm): 0.553 OD

B27: TIGIT-SC164 (Fc fusion)
VHH: B24 VHH with N27F, S30D, G31R, G32S, F33W, W47F
notes: VHH-Fc
- OD (450 nm): 0.363 OD

B28: TIGIT-SC37 (Fc fusion)
VHH: B24 VHH with T96V, T97F, E98G, S100V, G101W, W102Q, R103D, N104V
notes: VHH-Fc
- OD (450 nm): 0.341 OD

B29: TIGIT-SC27 (Fc fusion)
VHH: EVQLVESGGGLVQPGGSLRLSCAASGLTFSNYVMGWFRQAPGKEREVVAGILSDGRELYADSVKGRFTISADNSKNTAYLQMNSLKPEDTAVYYCARDVFGEGHWGQGTLVTVSS
notes: VHH-Fc
- OD (450 nm): 0.505 OD
